The values below come from PMC9105384, “Ethyl Gallate Dual-Targeting PTPN6 and PPARγ Shows Anti-Diabetic and Anti-Obese Effects” (International Journal of Molecular Sciences, 2022).

The labels stand for the following.
B1: DUSP18 (Homo sapiens) (protein)
chain: MTAPSCAFPVQFRQPSVSGLSQITKSLYISNGVAANNKLMLSSNQITMVINVSVEVVNTLYEDIQYMQVPVADSPNSRLCDFFDPIADHIHSVEMKQGRTLLHCAAGVSRSAALCLAYLMKYHAMSLLDAHTWTKSCRPIIRPNSGFWEQLIHYEFQLFGKNTVHMVSSPVGMIPDIYEKEVRLMIPL
B2: DUSP3 (Homo sapiens) (protein)
chain: MSGSFELSVQDLNDLLSDGSGCYSLPSQPCNEVTPRIYVGNASVAQDIPKLQKLGITHVLNAAEGRSFMHVNTNANFYKDSGITYLGIKANDTQEFNLSAYFERAADFIDQALAQKNGRVLVHCREGYSRSPTLVIAYLMMRQKMDVKSALSIVRQNREIGPNDGFLAQLCQLNDRLAKEGKLKP
B3: DUSP22 (Homo sapiens) (protein)
chain: MGNGMNKILPGLYIGNFKDARDAEQLSKNKVTHILSVHDSARPMLEGVKYLCIPAADSPSQNLTRHFKESIKFIHECRLRGESCLVHCLAGVSRSVTLVIAYIMTVTDFGWEDALHTVRAGRSCANPNVGFQRQLQEFEKHEVHQYRQWLKEEYGESPLQDAEEAKNILAAPGILKFWAFLRRL
B4: DUSP14 (Homo sapiens) (protein)
chain: MSSRGHSTLPRTLMAPRMISEGDIGGIAQITSSLFLGRGSVASNRHLLQARGITCIVNATIEIPNFNWPQFEYVKVPLADMPHAPIGLYFDTVADKIHSVSRKHGATLVHCAAGVSRSATLCIAYLMKFHNVCLLEAYNWVKARRPVIRPNVGFWRQLIDYERQLFGKSTVKMVQTPYGIVPDVYEKESRHLMPYWGI
B5: DUSP15 (Homo sapiens) (protein)
chain: MTEGVLPGLYLGNFIDAKDLDQLGRNKITHIISIHESPQPLLQDITYLRIPVADTPEVPIKKHFKECINFIHCCRLNGGNCLVHCFAGISRSTTIVTAYVMTVTGLGWRDVLEAIKATRPIANPNPGFRQQLEEFGWASSQKGARHRTSKTSGAQCPPMTSATCLLAARVALLSAALVREATGRTAQRCRLSPRAAAERLLGPPPHVAAGWSPDPKYQICLCFGEEDPGPTQHPKEQLIMADVQVQLRPGSSSCTLSASTERPDGSSTPGNPDGITHLQCSCLHPKRAASSSCTR
B6: PTPN21 (Homo sapiens) (protein)
chain: MPLPFGLKLKRTRRYTVSSKSCLVARIQLLNNEFVEFTLSVESTGQESLEAVAQRLELREVTYFSLWYYNKQNQRRWVDLEKPLKKQLDKYALEPTVYFGVVFYVPSVSQLQQEITRYQYYLQLKKDILEGSIPCTLEQAIQLAGLAVQADFGDFDQYESQDFLQKFALFPVGWLQDEKVLEEATQKVALLHQKYRGLTAPDAEMLYMQEVERMDGYGEESYPAKDSQGSDISIGACLEGIFVKHKNGRHPVVFRWHDIANMSHNKSFFALELANKEETIQFQTEDMETAKYIWRLCVARHKFYRLNQCNLQTQTVTVNPIRRRSSSRMSLPKPQPYVMPPPPQLHYNGHYTEPYASSQDNLFVPNQNGYYCHSQTSLDRAQIDLNGRIRNGSVYSAHSTNSLNNPQPYLQPSPMSSNPSITGSDVMRPDYLPSHRHSAVIPPSYRPTPDYETVMKQLNRGLVHAERQSHSLRNLNIGSSYAYSRPAALVYSQPEIREHAQLPSPAAAHCPFSLSYSFHSPSPYPYPAERRPVVGAVSVPELTNAQLQAQDYPSPNIMRTQVYRPPPPYPPPRPANSTPDLSRHLYISSSNPDLITRRVHHSVQTFQEDSLPVAHSLQEVSEPLTAARHAQLHKRNSIEVAGLSHGLEGLRLKERTLSASAAEVAPRAVSVGSQPSVFTERTQREGPEEAEGLRYGHKKSLSDATMLIHSSEEEEDEDFEEESGARAPPARAREPRPGLAQDPPGCPRVLLAGPLHILEPKAHVPDAEKRMMDSSPVRTTAEAQRPWRDGLLMPSMSESDLTTSGRYRARRDSLKKRPVSDLLSGKKNIVEGLPPLGGMKKTRVDAKKIGPLKLAALNGLSLSRVPLPDEGKEVATRATNDERCKILEQRLEQGMVFTEYERILKKRLVDGECSTARLPENAERNRFQDVLPYDDVRVELVPTKENNTGYINASHIKVSVSGIEWDYIATQGPLQNTCQDFWQMVWEQGIAIIAMVTAEEEGGREKSFRYWPRLGSRHNTVTYGRFKITTRFRTDSGCYATTGLKMKHLLTGQERTVWHLQYTDWPEHGCPEDLKGFLSYLEEIQSVRRHTNSTSDPQSPNPPLLVHCSAGVGRTGVVILSEIMIACLEHNEVLDIPRVLDMLRQQRMMLVQTLCQYTFVYRVLIQFLKSSRLI
B7: PTPN14 (Homo sapiens) (protein)
chain: MPFGLKLRRTRRYNVLSKNCFVTRIRLLDSNVIECTLSVESTGQECLEAVAQRLELRETHYFGLWFLSKSQQARWVELEKPLKKHLDKFANEPLLFFGVMFYVPNVSWLQQEATRYQYYLQVKKDVLEGRLRCTLDQVIRLAGLAVQADFGDYNQFDSQDFLREYVLFPMDLALEEAVLEELTQKVAQEHKAHSGILPAEAELMYINEVERLDGFGQEIFPVKDNHGNCVHLGIFFMGIFVRNRIGRQAVIYRWNDMGNITHNKSTILVELINKEETALFHTDDIENAKYISRLFATRHKFYKQNKICTEQSNSPPPIRRQPTWSRSSLPRQQPYILPPVHVQCGEHYSETHTSQDSIFHGNEEALYCNSHNSLDLNYLNGTVTNGSVCSVHSVNSLNCSQSFIQASPVSSNLSIPGSDIMRADYIPSHRHSAIIVPSYRPTPDYETVMRQMKRGILHTDSQSQSLRNLNIINTHAYNQPEDLVYSQPEMRERHPYTVPYGPQGVYSNKLVSPSDQRNPKNNVVPSKPGASAISHTVSTPELANMQLQGSHNYSTAHMLKNYLFRPPPPYPRPRPATSTPDLASHRHKYVSGSSPDLVTRKVQLSVKTFQEDSSPVVHQSLQEVSEPLTATKHHGTVNKRHSLEVMNSMVRGMEAMTLKSLHLPMARRNTLREQGPPEEGSGSHEVPQLPQYHHKKTFSDATMLIHSSESEEEEEEAPESVPQIPMLREKMEYSAQLQAALARIPNKPPPEYPGPRKSVSNGALRQDQASLPPAMARARVLRHGPAKAISMSRTDPPAVNGASLGPSISEPDLTSVKERVKKEPVKERPVSEMFSLEDSIIEREMMIRNLEKQKMAGLEAQKRPLMLAALNGLSVARVSGREENRVDATRVPMDERFRTLKKKLEEGMVFTEYEQIPKKKANGIFSTAALPENAERSRIREVVPYEENRVELIPTKENNTGYINASHIKVVVGGAEWHYIATQGPLPHTCHDFWQMVWEQGVNVIAMVTAEEEGGRTKSHRYWPKLGSKHSSATYGKFKVTTKFRTDSVCYATTGLKVKHLLSGQERTVWHLQYTDWPDHGCPEDVQGFLSYLEEIQSVRRHTNSMLEGTKNRHPPIVVHCSAGVGRTGVLILSELMIYCLEHNEKVEVPMMLRLLREQRMFMIQTIAQYKFVYQVLIQFLQNSRLI
B8: PTPN12 (Homo sapiens) (protein)
chain: MEQVEILRKFIQRVQAMKSPDHNGEDNFARDFMRLRRLSTKYRTEKIYPTATGEKEENVKKNRYKDILPFDHSRVKLTLKTPSQDSDYINANFIKGVYGPKAYVATQGPLANTVIDFWRMIWEYNVVIIVMACREFEMGRKKCERYWPLYGEDPITFAPFKISCEDEQARTDYFIRTLLLEFQNESRRLYQFHYVNWPDHDVPSSFDSILDMISLMRKYQEHEDVPICIHCSAGCGRTGAICAIDYTWNLLKAGKIPEEFNVFNLIQEMRTQRHSAVQTKEQYELVHRAIAQLFEKQLQLYEIHGAQKIADGVNEINTENMVSSIEPEKQDSPPPKPPRTRSCLVEGDAKEEILQPPEPHPVPPILTPSPPSAFPTVTTVWQDNDRYHPKPVLHMVSSEQHSADLNRNYSKSTELPGKNESTIEQIDKKLERNLSFEIKKVPLQEGPKSFDGNTLLNRGHAIKIKSASPCIADKISKPQELSSDLNVGDTSQNSCVDCSVTQSNKVSVTPPEESQNSDTPPRPDRLPLDEKGHVTWSFHGPENAIPIPDLSEGNSSDINYQTRKTVSLTPSPTTQVETPDLVDHDNTSPLFRTPLSFTNPLHSDDSDSDERNSDGAVTQNKTNISTASATVSAATSTESISTRKVLPMSIARHNIAGTTHSGAEKDVDVSEDSPPPLPERTPESFVLASEHNTPVRSEWSELQSQERSEQKKSEGLITSENEKCDHPAGGIHYEMCIECPPTFSDKREQISENPTEATDIGFGNRCGKPKGPRDPPSEWT
B9: PTPN18 (Homo sapiens) (protein)
chain: MSRSLDSARSFLERLEARGGREGAVLAGEFSDIQACSAAWKADGVCSTVAGSRPENVRKNRYKDVLPYDQTRVILSLLQEEGHSDYINGNFIRGVDGSLAYIATQGPLPHTLLDFWRLVWEFGVKVILMACREIENGRKRCERYWAQEQEPLQTGLFCITLIKEKWLNEDIMLRTLKVTFQKESRSVYQLQYMSWPDRGVPSSPDHMLAMVEEARRLQGSGPEPLCVHCSAGCGRTGVLCTVDYVRQLLLTQMIPPDFSLFDVVLKMRKQRPAAVQTEEQYRFLYHTVAQMFCSTLQNASPHYQNIKENCAPLYDDALFLRTPQALLAIPRPPGGVLRSISVPGSPGHAMADTYAVVQKRGAPAGAGSGTQTGTGTGTGARSAEEAPLYSKVTPRAQRPGAHAEDARGTLPGRVPADQSPAGSGAYEDVAGGAQTGGLGFNLRIGRPKGPRDPPAEWTRV
B10: DUSP9 (Homo sapiens) (protein)
chain: MEGLGRSCLWLRRELSPPRPRLLLLDCRSRELYESARIGGALSVALPALLLRRLRRGSLSVRALLPGPPLQPPPPAPVLLYDQGGGRRRRGEAEAEAEEWEAESVLGTLLQKLREEGYLAYYLQGGFSRFQAECPHLCETSLAGRAGSSMAPVPGPVPVVGLGSLCLGSDCSDAESEADRDSMSCGLDSEGATPPPVGLRASFPVQILPNLYLGSARDSANLESLAKLGIRYILNVTPNLPNFFEKNGDFHYKQIPISDHWSQNLSRFFPEAIEFIDEALSQNCGVLVHCLAGVSRSVTVTVAYLMQKLHLSLNDAYDLVKRKKSNISPNFNFMGQLLDFERSLRLEERHSQEQGSGGQASAASNPPSFFTTPTSDGAFELAPT

Substrate in this data set: Cc1cc(=O)oc2c(F)c(OP(=O)(O)O)c(F)cc12
The experiment in a line: purified protein, by the assay type. Details: DiFMUP hydrolysis by purified PTPs, fluorescence Ex355/Em460, initial rates over 10 min; Michaelis-Menten and Lineweaver-Burk Km. The protocol:
The enzymatic activity of each PTP was evaluated using 6,8-difluoro-4-methylumbelliferyl phosphate (DiFMUP) as the surrogate substrate. To reach within the range of the initial rate (v0) during the measurement for 10 min, the pH and concentration of each PTP were optimized and are listed in Table S3. To determine the Km values, each PTP with optimized concentration was added to the reaction buffer (20 mM Bis-Tris at pH 6.0 or Tris at pH 7.0 and 8.0, 150 mM NaCl, 2.5 mM dithiothreitol (DTT), 0.01% Triton X-100) containing various concentrations of DiFMUP to obtain a final volume of 100 μL in a 96-well plate. Fluorescence intensities were measured once every minute for a complete 10 min duration using a Victor™ X4 Multilabel Plate Reader (Perkin Elmer, Waltham, MA, USA) at excitation/emission = 355 nm/460 nm. The initial rates of the reaction were determined using a previously described procedure for calculating the amount of product formation. To screen a library of 1033 natural products (Chengdu Biopurify Phytochemicals Ltd., Chengdu, China) against 20 PTPs, each PTP with an optimized concentration was added to the reaction buffer with an optimized pH containing DiFMUP (2 × Km for each PTP) after adding each compound (20 μM). […] The IC50 values were estimated using a sigmoid plot in GraphPad Prism 5 software (GraphPad Software Inc., San Diego, CA, USA). The Hill coefficient (nH), the degree of cooperativity, was calculated according to a previously published method. To determine the inhibition constant (Ki) and identify the inhibition mode of EG, various concentrations of EG (2.5, 5, 10, and 20 μM) were assayed with various concentrations of DiFMUP (260, 130, 65, and 32.5 μM). Kinetic parameters were obtained using Dixon plots for Ki and Lineweaver-Burk plots for the inhibition mode.
Broadly, the Km is the substrate concentration at which the rate is half of its maximum. Take B1: the Km came out at 29.0 µM.

As to B2, the Km turned out to be 100.0 µM.

Regarding B3, the Km came to 13.0 µM.

Regarding B4, the Km is 55.0 µM.

Consider B5, for which the Km was determined as 9.1 µM.

With B6, the Michaelis-Menten constant (Km) was 46.7 µM.

On to B7, for which the Km came out at 423.7 µM.

For the protein B8, the Km was 75.8 µM.

Consider B9, for which the Km turned out to be 5.5 µM.

On to B10, for which the Km amounted to 35.0 µM.
